Experimental data from paper doi:10.1101/758714 (bioRxiv, 2019).

T1: CRY1 photolyase homology region (PHR), residues 1-491 (human, UniProt Q16526 1-491)
T1 sequence (looked up): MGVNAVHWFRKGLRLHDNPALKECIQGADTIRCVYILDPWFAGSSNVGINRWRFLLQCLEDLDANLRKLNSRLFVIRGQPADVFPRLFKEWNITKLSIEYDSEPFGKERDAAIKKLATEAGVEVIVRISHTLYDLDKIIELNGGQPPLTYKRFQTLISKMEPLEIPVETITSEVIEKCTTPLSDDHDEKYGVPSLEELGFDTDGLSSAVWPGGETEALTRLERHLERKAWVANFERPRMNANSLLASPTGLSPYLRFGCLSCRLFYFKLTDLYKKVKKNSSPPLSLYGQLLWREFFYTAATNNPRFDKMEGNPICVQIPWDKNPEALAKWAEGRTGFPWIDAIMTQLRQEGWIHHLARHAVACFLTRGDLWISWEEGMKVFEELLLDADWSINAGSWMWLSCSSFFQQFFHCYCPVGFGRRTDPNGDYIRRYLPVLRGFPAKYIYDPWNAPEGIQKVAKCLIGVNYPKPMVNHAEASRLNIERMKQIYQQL

B1: human CRY1 tail (residues 492-586) (domain or fragment, UniProt Q16526 492-586, looked up)
chain: SRYRGLGLLASVPSNPNGNGGFMGYSAENIPGCSSSGSCSQGSGILHYAHGDSQQTHLLKQGRSSMGTGLSGGKRPSQEEDTQSIGPKVQRQSTN
modifications: fluorescein (FAM) on the N-terminus in the FP binding assays

Legend:
[1] = target: CRY1 photolyase homology region (PHR), residues 1-491 (human) (UniProt Q16526); test: fluorescence polarisation
[2] = target: T1, CRY1 photolyase homology region (PHR), …; test: fluorescence polarisation

Molecule | fold lower affinity than the hCRY1 tail [1] | Kd [2]
Δ11 version of the human CRY1 tail (from UniProt Q16526 492-586) (domain or fragment) | 4 fold | 
B1 |  | ~5 µM
